Experimental data reported in US20160264649A1.

Key:
Assay in all cases: cell-based or functional assay
[1] = target: HIV-1 93RW029 Env (HIV-1)
[2] = target: HIV-1 92RW020 Env (HIV-1)
[3] = target: HIV-1 MGRM-A-010 Env (HIV-1)
[4] = target: HIV-1 MGRM-A-002 Env (HIV-1)
HIV-1 VLGCA1 Env (HIV-1) = target: HIV-1 VLGCA1 Env (HIV-1)
[5] = target: HIV-1 MGRM-D-003 Env (HIV-1)
[6] = target: HIV-1 93MW959 Env on pseudovirus (HIV-1)
[7] = target: HIV-1 MGRM-AE-008 Env (HIV-1)
[8] = target: HIV-1 LAVI_C22 Env on pseudovirus (HIV-1)
[9] = target: HIV-1 MGRM-Chronic-B-012 Env on pseudovirus (HIV-1)
[10] = target: HIV-1 MGRM-AG-006 Env (HIV-1)
[11] = target: HIV-1 MGRM-Chronic-B-011 Env on pseudovirus (HIV-1)
[12] = target: HIV-1 98CN006 Env on pseudovirus (HIV-1)
[13] = target: HIV-1 92UG024 Env (HIV-1)
[14] = target: HIV-1 MGRM-D-013 Env (HIV-1)
[15] = target: HIV-1 MGRM-Chronic-B-002 Env on pseudovirus (HIV-1)
[16] = target: HIV-1 MGRM-Chronic-B-024 Env on pseudovirus (HIV-1)
[17] = target: HIV-1 MGRM-D-018 Env (HIV-1)
[18] = target: HIV-1 MGRM-G-009 Env (HIV-1)
[19] = target: HIV-1 MGRM-Chronic-B-018 Env on pseudovirus (HIV-1)
[20] = target: HIV-1 MGRM-Chronic-B-017 Env on pseudovirus (HIV-1)
[21] = target: HIV-1 MGRM-D-014 Env (HIV-1)
[22] = target: HIV-1 MGRM-AE-001 Env (HIV-1)
[23] = target: HIV-1 94UG114 Env (HIV-1)
[24] = target: HIV-1 MGRM-G-017 Env (HIV-1)
[25] = target: HIV-1 VLGCB3 Env on pseudovirus (HIV-1)
HIV-1 CMU02 Env (HIV-1) = target: HIV-1 CMU02 Env (HIV-1)
[26] = target: HIV-1 94UG103 Env (HIV-1)
[27] = target: HIV-1 MGRM-Chronic-B-004 Env on pseudovirus (HIV-1)
[28] = target: HIV-1 MGRM-C-010 Env on pseudovirus (HIV-1)
[29] = target: HIV-1 SC422661.8 (Acute) Env on pseudovirus (HIV-1)
[30] = target: HIV-1 MGRM-AE-004 Env (HIV-1)
[31] = target: HIV-1 PVO.4 (Acute) Env on pseudovirus (HIV-1)
HIV-1 APV-17 Env (HIV-1) = target: HIV-1 APV-17 Env (HIV-1)
[32] = target: HIV-1 MGRM-F1-017 Env (HIV-1)
[33] = target: HIV-1 93IN905 Env on pseudovirus (HIV-1)
[34] = target: HIV-1 APV_13 Env on pseudovirus (HIV-1)
[35] = target: HIV-1 MGRM-C-013 Env on pseudovirus (HIV-1)
[36] = target: HIV-1 MGRM-F1-022 Env (HIV-1)
aMLV envelope = target: aMLV envelope
[37] = target: HIV-1 MGRM-Chronic-B-023 Env on pseudovirus (HIV-1)
[38] = target: HIV-1 MGRM-Chronic-B-008 Env on pseudovirus (HIV-1)
[39] = target: HIV-1 MGRM-C-007 Env on pseudovirus (HIV-1)
[40] = target: HIV-1 IAVI-C18 Env (HIV-1)
[41] = target: HIV-1 MGRM-F1-023 Env (HIV-1)
[42] = target: HIV-1 MGRM-C-004 Env on pseudovirus (HIV-1)
[43] = target: HIV-1 LAVI_C3 Env on pseudovirus (HIV-1)
[44] = target: HIV-1 MGRM-Chronic-B-003 Env on pseudovirus (HIV-1)
[45] = target: HIV-1 MGRM-C-009 Env on pseudovirus (HIV-1)
[46] = target: HIV-1 MGRM-C-025 Env on pseudovirus (HIV-1)
[47] = target: HIV-1 MGRM-D-026 Env (HIV-1)

1495_C14 (PGC14) (antibody)
42 µg/mL: neutralization IC50 [1]
21 µg/mL: IC50 [25]
> 50 µg/mL: neutralization IC50 [3] | neutralization IC50 [4] | neutralization IC50 (HIV-1 VLGCA1 Env (HIV-1)) | IC50 (µg/ml), pseudovirus neutralization [5] | IC50 [6] | IC50 (µg/ml), pseudovirus neutralization [7] | IC50 [9] | IC50 (µg/ml), pseudovirus neutralization [10] | IC50 [11] | IC50 [12] | IC50 (µg/ml), pseudovirus neutralization [13] | neutralization IC50 [13] | IC50 (µg/ml), pseudovirus neutralization [14] | IC50 [15] | IC50 [16] | IC50 (µg/ml), pseudovirus neutralization [17] | IC50 (µg/ml), pseudovirus neutralization [18] | IC50 [19] | IC50 [20] | IC50 (µg/ml), pseudovirus neutralization [22] | IC50 (µg/ml), pseudovirus neutralization [23] | IC50 (µg/ml), pseudovirus neutralization [24] | IC50 (µg/ml), pseudovirus neutralization (HIV-1 CMU02 Env (HIV-1)) | neutralization IC50 (HIV-1 CMU02 Env (HIV-1)) | neutralization IC50 [26] | IC50 [27] | IC50 [28] | IC50 [29] | IC50 (µg/ml), pseudovirus neutralization [30] | IC50 [31] | neutralization IC50 (HIV-1 APV-17 Env (HIV-1)) | IC50 (pseudovirus neutralization) [32] | IC50 [34] | IC50 [35] | IC50 (pseudovirus neutralization) [36] | neutralization IC50 (aMLV envelope) | IC50 [37] | IC50 [38] | IC50 [39] | neutralization IC50 [40] | IC50 (pseudovirus neutralization) [41] | IC50 [42] | IC50 [44] | IC50 [45] | IC50 [46] | IC50 (µg/ml), pseudovirus neutralization [47]
19 µg/mL: IC50 [33]
46 µg/mL: neutralization IC50 [2]
48 µg/mL: IC50 (µg/ml), pseudovirus neutralization [21]
12 µg/mL: IC50 [43]
25 µg/mL: IC50 [8]

b12 (antibody)
6.11 µg/mL: IC50 [29]
0.26 µg/mL: IC50 [27]
34.2 µg/mL: neutralization IC90 (HIV-1 CMU02 Env (HIV-1))
29.3 µg/mL: IC50 (µg/ml), pseudovirus neutralization (HIV-1 CMU02 Env (HIV-1))
2.11 µg/mL: IC50 [11]
47.3 µg/mL: neutralization IC90 [26]
> 50 µg/mL: neutralization IC50 [1] | neutralization IC50 [2] | neutralization IC50 [3] | neutralization IC50 [4] | neutralization IC50 (HIV-1 VLGCA1 Env (HIV-1)) | IC50 (µg/ml), pseudovirus neutralization [5] | IC50 [6] | IC50 (µg/ml), pseudovirus neutralization [7] | IC50 [9] | IC50 (µg/ml), pseudovirus neutralization [10] | IC50 [12] | neutralization IC90 [13] | IC50 (µg/ml), pseudovirus neutralization [14] | IC50 [16] | IC50 (µg/ml), pseudovirus neutralization [18] | IC50 (µg/ml), pseudovirus neutralization [21] | IC50 (µg/ml), pseudovirus neutralization [23] | IC50 (µg/ml), pseudovirus neutralization [24] | IC50 [28] | IC50 (µg/ml), pseudovirus neutralization [30] | IC50 [31] | neutralization IC90 (HIV-1 APV-17 Env (HIV-1)) | IC50 (pseudovirus neutralization) [32] | IC50 [34] | IC50 [35] | IC50 (pseudovirus neutralization) [36] | neutralization IC50 (aMLV envelope) | neutralization IC90 (aMLV envelope) | IC50 [37] | IC50 [39] | neutralization IC50 [40] | neutralization IC90 [40] | IC50 (pseudovirus neutralization) [41] | IC50 [44] | IC50 [45] | IC50 [46]
1.39 µg/mL: IC50 (µg/ml), pseudovirus neutralization [17]
0.15 µg/mL: IC50 [25]
2.82 µg/mL: IC50 [38]
21.4 µg/mL: IC50 [33]
> 25 µg/mL: neutralization IC50 (HIV-1 APV-17 Env (HIV-1))
1.55 µg/mL: IC50 (µg/ml), pseudovirus neutralization [47]
0.86 µg/mL: IC50 [15]
2.59 µg/mL: IC50 [20]
0.94 µg/mL: IC50 [43]
49.1 µg/mL: neutralization IC50 [13]
3.54 µg/mL: neutralization IC50 [26]
0.66 µg/mL: IC50 [19]
5.46 µg/mL: IC50 [42]
7.64 µg/mL: IC50 [8]
45.6 µg/mL: IC50 (µg/ml), pseudovirus neutralization [13]
4.25 µg/mL: neutralization IC50 (HIV-1 CMU02 Env (HIV-1))
25.9 µg/mL: IC50 (µg/ml), pseudovirus neutralization [22]
